Laboratory results as given in article PMC5150636, “Isolated pores dissected from human two-pore channel 2 are functional” (Scientific Reports, 2016).

Target: the molecule itself
Assay: SEC; Superdex 200 10/300 GL, buffer A (25 mM Tris, 500 mM NaCl, 0.174% (w/v) DM, pH 7.4), 0.5 ml/min, column calibrated with protein standards; fractions read by SDS PAGE; oligomer size from the elution volume

B1: human TPC2 DI pore (S212-A337), hexa-histidine-tagged (domain or fragment, UniProt Q8NHX9 212-337, looked up)
chain: SLPEMASVGLLLAIHLCLFTMFGMLLFAGGKQDDGQDRERLTYFQNLPESLTSLLVLLTTANNPDVMIPAYSKNRAYAIFFIVFTVIGSLFLMNLLTAIIYSQFRGYLMKSLQTSLFRRRLGTRAA
notes: two-pore channel 2 (TPC2), human, domain I pore region (S5-S6), residues S212-A337, codon-optimised synthetic gene in pET15b; numbers count on the full length channel; No removal of the His tag is described; also called hexaHis-DI pore; DI pore-only protein
stoichiometry N: 4
